Biological target: MITF wild-type (DNA-binding fragment) (UniProt Q95MD1 112-207)
Experiment: EMSA; 5 mM MgCl2; 20 mM Tris, 50 mM NaCl, 5 mM MgCl2, 1 mM DTT, 33 ug/ml BSA, pH 7.4, on ice 30 min; 6% native PAGE in 0.5x TBE
Conditions: protein: recombinant; (Ni-NTA purified); chain copies: 2; label: radioactive label

MITF wild-type (DNA-binding fragment), sequence (Q95MD1 entry or part of it): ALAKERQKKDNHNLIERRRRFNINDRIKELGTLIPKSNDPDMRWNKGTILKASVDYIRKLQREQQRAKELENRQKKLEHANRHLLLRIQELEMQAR

B1: M-box oligonucleotide (dsDNA)
DNA 1: GGAAAGTTAGTCATGTGCTTTTCAGAAGA
DNA 2: TCTTCTGAAAAGCACATGACTAACTTTCC
- binding result: binds

Source: paper PMC3325211, “Mutations in MITF and PAX3 Cause “Splashed White” and Other White Spotting Phenotypes in Horses”
